One may read the stoichiometry N as the number of molecules, sites or subunits per partner or assembly.

This data set concerns the molecule itself. In words: single molecule analysis.

B1: EGFP-S1C 4KA (domain or fragment, UniProt Q13586 342-465, looked up)
chain: YAPEALQKWLQLTHEVEVQYYNIKKQNAEKQLLVAKEGAEAIAAARNTLFGTFHVAHSSSLDDVDHKILTAKQALSEVTAALRERLHRWQQIEILCGFQIVNNPGIHSLVAALNIDPSWMGSTR
Regarding B1, the “stoichiometry N” value was 2.

These data come from article PMC5519287 (Cell reports, 2017).
